Test results from publication PMC7826288, “Dynamics of TRF1 organizing a single human telomere” (Nucleic Acids Research, 2020).

Legend:
[1] = molecular target: T1, TRF1 (human, UniProt P54274); experiment: single-molecule magnetic tweezers; settings: delta-delta G of fork opening with vs without 10 nM TRF1 (61 vs 50 kBT); 20 mM HEPES pH 7.5, 100 mM NaCl, 1 mM EDTA, 0.0063% Tween-20; EMSA 30 min on ice, 5% PAGE in 1x TBE at 4 C; magnetic tweezers at 23 C
[2] = molecular target: T1, TRF1; experiment: EMSA; dimer concentration; Hill fit; 10 nM DNA, n=3; 20 mM HEPES pH 7.5, 100 mM NaCl, 1 mM EDTA, 0.0063% Tween-20; EMSA 30 min on ice, 5% PAGE in 1x TBE at 4 C; magnetic tweezers at 23 C; settings: protein: recombinant; tags: trx tag (modified pET32a, Ni-NTA) removed with 3C protease; chain copies: 2; label: FAM on strand 2 (printed as FAM-CTAACCC..., 5'); blunt

T1 sequence (P54274 3-439): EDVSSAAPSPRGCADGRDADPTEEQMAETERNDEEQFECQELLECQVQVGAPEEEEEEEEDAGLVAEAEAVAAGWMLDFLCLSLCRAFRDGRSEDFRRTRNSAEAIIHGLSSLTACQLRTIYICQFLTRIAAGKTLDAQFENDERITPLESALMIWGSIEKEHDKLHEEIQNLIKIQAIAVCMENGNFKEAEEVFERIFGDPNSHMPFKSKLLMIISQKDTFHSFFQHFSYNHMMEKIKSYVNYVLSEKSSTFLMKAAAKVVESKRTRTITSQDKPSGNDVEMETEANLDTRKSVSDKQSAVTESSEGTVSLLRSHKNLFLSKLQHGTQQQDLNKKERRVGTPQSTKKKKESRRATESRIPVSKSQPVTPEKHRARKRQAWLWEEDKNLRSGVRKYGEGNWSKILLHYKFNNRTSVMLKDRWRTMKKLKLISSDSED

short telomeric hairpin (13 TTAGGG repeats)
binding signal [1]: 11 kBT

B1: telomeric dsDNA (two TTAGGG sites) (dsDNA)
DNA 1: GTTAGGGTTAGGGTTAG
DNA 2: CTAACCCTAACCCTAAC
Kd [2]: 17.5 ± 0.7 nM
